Data on one molecule can be found in patent US20230129812A1, “COMPOSITIONS AND METHODS FOR TREATING PULMONARY HYPERTENSION” (Acceleron Pharma Inc., priority 2020, published 2023).

Experiment [1] concerns the target GDF8, O14793. Put plainly: SPR (Biacore); receptor-Fc captured by anti-Fc antibody, ligand injected; † Very low signal. Particulars: remark: other sources report otherwise.
In experiment [2] the target is GDF8, O14793. Put plainly: SPR (Biacore); receptor-Fc captured by anti-Fc antibody, ligand injected. The conditions noted are these: remark: other sources report otherwise.
Sequence of GDF8, O14793 (O14793 267-375 limits assumed): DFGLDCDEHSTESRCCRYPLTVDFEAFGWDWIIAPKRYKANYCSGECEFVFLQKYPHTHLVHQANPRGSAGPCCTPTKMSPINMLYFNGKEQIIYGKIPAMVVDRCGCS

B1: ALK4-Fc homodimer, P36896 24-126 (Fc fusion, not shown: a dimerising Fc or GST)
chain: SGPRGVQALLCACTSCLQANYTCETDGACMVSIFNLDGMEHHVRTCIPKVELVPAGKPFYCLSSEDLRNTHCCYTDYCNRIDLRVPSGHLKEPEHPSMWGPVE
As a reminder, the Kd is the constant that tells how readily two partners part at equilibrium. A high value points to lower affinity. As a reminder, the koff is a measure of how fast the partners let go of each other. Read a high koff as a short-lived complex. In general, kon refers to a measure of how fast the partners come together. Low values mean slow association, high ones fast association. For B1, the Kd in experiment [1] is 15 nM. In experiment [2], this molecule gave a koff of 0.0019 s⁻¹ and a kon of 130000 M⁻¹ s⁻¹.
